Patent publication US10500249B2, “Compositions and methods for preventing or treating diseases, conditions, or processes characterized by aberrant fibroblast proliferation and extracellular matrix deposition” (MOERAE MATRIX, INC., priority 2014, dated 2019)

Tests used:
Assay in all cases: Kinase Profiling Assay
Type in all cases: biochemical
Settings in all cases: 100 μM
LIMK1 (h) = LIMK1 (h) (Homo sapiens, UniProt P53667)
Procedure, shortened: (§1)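 Specificity of MK2 inhibitory peptides is assessed against a panel of 266 human kinases. Kinase transfers a radiolabeled phosphate from ATP onto a positively charged substrate, which is trapped on a negatively charged filter and quantified by scintillation counting against full-activity control; duplicate determinations.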

CDK1/cyclinB (h) = molecular target: T1, CDK1/cyclinB (h) (Homo sapiens, UniProt P06493)
T1 construct: purchased Millipore
T1 sequence (P06493 whole entry): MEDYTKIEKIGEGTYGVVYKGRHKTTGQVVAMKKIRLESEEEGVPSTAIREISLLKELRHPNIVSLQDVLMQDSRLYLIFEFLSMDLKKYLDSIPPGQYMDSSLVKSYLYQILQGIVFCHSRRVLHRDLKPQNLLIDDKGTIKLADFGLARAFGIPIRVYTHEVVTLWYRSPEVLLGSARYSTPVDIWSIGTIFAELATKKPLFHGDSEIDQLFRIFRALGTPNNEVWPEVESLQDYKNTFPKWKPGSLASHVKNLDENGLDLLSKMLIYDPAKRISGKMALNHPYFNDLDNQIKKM
T1 sequence (P14635 whole entry partner): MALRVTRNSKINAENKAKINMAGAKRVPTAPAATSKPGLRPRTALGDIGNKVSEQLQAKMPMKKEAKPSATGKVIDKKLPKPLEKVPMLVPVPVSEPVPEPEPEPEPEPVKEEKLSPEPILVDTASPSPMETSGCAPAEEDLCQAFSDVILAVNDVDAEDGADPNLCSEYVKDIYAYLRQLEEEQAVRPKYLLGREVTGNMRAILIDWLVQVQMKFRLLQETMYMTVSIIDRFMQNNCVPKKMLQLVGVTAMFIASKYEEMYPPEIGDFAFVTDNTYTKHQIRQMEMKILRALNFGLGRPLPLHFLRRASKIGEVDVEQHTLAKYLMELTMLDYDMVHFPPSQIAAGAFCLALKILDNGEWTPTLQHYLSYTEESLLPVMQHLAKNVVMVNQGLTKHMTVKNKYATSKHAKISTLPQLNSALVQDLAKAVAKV
Procedure, shortened: as §1

ErbB4 (h) = ErbB4 (h) (Homo sapiens, UniProt Q15303)
Chain of ErbB4 (h) (Q15303 26-1308): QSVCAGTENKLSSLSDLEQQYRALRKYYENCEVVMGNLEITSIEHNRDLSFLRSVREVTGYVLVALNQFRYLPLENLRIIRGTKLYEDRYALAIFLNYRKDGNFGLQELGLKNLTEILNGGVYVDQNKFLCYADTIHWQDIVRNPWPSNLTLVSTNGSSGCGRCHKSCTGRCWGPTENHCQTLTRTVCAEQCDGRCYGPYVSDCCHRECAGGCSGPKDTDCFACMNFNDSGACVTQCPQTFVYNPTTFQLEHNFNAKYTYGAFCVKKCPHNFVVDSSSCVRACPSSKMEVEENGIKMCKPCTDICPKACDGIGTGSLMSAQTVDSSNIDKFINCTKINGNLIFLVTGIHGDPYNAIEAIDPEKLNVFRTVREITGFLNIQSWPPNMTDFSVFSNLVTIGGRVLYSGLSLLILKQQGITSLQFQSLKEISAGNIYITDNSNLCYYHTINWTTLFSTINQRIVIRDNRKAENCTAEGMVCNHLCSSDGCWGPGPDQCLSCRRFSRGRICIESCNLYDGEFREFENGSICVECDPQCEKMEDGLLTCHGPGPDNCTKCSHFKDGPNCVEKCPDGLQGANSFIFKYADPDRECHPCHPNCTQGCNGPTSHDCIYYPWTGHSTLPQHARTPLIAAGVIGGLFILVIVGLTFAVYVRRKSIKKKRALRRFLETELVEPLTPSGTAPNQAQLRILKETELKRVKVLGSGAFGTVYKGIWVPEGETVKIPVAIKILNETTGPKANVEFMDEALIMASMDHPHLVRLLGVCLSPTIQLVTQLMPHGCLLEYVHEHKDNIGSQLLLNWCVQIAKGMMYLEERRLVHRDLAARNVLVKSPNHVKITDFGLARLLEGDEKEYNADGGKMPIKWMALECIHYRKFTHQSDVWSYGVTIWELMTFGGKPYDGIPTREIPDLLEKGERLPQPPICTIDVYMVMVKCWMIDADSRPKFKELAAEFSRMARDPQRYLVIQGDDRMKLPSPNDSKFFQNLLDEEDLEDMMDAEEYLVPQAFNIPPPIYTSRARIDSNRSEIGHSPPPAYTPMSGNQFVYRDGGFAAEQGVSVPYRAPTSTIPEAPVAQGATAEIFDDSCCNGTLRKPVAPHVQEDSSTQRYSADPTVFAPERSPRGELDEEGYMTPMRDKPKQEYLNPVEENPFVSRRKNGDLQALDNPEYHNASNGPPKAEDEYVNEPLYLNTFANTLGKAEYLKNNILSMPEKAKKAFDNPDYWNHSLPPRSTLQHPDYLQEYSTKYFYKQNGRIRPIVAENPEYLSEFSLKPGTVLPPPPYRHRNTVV
Procedure, shortened: as §1

Src(1-530) (h) = molecular target: T2, Src(1-530) (h) (Homo sapiens, UniProt P12931)
T2 construct: Src(1-530) (h)
Procedure, shortened: as §1

Ret (V804L) (h) = Ret (V804L) (h) (Homo sapiens, UniProt P07949, V804L)
Procedure, shortened: as §1

MAPKAP-K2 (h) = MAPKAP-K2 (h) (Homo sapiens, UniProt P49137)
Chain of MAPKAP-K2 (h) (P49137 whole entry): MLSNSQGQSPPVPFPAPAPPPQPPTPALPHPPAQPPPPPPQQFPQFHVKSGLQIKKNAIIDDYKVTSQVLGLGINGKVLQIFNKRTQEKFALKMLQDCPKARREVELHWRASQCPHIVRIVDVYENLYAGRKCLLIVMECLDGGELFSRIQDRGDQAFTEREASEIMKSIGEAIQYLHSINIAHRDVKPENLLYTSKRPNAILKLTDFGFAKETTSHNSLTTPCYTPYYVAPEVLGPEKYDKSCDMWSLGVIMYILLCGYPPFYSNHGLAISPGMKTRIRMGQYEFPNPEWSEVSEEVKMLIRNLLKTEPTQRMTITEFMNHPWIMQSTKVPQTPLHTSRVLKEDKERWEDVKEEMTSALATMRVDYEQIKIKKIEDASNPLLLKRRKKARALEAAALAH
Procedure, shortened: as §1

CSK (h) = molecular target: T3, CSK (h) (Homo sapiens, UniProt P41240)
T3 construct: purchased Millipore
T3 sequence (P41240 whole entry): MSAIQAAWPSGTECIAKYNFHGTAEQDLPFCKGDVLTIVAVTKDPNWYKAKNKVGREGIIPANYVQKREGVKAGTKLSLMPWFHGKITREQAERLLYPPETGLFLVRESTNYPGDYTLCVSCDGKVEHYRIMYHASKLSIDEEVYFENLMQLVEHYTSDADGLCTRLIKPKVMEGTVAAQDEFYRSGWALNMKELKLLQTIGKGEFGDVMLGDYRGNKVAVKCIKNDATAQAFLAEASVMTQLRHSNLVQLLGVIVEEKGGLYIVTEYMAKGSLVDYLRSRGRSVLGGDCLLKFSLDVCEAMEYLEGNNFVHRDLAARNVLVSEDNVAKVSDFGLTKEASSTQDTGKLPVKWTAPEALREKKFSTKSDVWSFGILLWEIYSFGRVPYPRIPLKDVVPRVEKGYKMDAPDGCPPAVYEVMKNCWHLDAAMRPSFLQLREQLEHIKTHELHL
Procedure, shortened: as §1

MuSK (h) = molecular target: T4, MuSK (h) (Homo sapiens, UniProt O15146)
T4 construct: purchased Millipore
T4 sequence (O15146 24-869): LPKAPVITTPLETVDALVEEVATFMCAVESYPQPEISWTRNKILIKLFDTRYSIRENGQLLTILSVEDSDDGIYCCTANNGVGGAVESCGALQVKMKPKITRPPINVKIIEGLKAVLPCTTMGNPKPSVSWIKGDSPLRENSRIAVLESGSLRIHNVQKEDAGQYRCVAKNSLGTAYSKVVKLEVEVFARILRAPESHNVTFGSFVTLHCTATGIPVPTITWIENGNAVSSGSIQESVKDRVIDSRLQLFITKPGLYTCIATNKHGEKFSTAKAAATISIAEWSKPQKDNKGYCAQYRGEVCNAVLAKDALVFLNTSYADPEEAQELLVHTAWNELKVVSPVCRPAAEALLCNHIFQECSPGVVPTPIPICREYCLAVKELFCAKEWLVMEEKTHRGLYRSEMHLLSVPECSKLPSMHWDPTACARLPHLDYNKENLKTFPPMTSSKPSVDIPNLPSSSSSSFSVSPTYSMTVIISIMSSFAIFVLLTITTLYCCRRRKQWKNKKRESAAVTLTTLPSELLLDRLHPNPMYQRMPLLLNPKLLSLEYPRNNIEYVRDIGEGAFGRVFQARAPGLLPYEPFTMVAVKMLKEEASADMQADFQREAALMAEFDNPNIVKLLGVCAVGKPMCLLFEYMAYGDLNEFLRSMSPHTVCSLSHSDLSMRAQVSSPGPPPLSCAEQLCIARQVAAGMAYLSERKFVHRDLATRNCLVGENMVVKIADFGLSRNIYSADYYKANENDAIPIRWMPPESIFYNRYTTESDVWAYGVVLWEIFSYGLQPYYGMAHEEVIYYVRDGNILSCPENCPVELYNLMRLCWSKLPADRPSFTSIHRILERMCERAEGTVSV
Procedure, shortened: as §1

Aurora-B (h) = Aurora-B (h) (Homo sapiens, UniProt Q96GD4)
Chain of Aurora-B (h) (Q96GD4 whole entry): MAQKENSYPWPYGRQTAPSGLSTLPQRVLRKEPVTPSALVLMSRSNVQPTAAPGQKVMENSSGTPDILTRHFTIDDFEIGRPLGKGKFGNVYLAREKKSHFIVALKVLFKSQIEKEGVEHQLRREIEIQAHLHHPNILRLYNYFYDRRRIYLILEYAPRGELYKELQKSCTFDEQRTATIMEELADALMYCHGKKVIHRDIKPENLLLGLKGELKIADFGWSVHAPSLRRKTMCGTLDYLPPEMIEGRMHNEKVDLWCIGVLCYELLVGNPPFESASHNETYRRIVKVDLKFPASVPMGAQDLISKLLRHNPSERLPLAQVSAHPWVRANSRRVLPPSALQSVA
Procedure, shortened: as §1

Mer (h) = molecular target: T5, Mer (h) (Homo sapiens, UniProt Q12866)
T5 sequence (Q12866 21-999): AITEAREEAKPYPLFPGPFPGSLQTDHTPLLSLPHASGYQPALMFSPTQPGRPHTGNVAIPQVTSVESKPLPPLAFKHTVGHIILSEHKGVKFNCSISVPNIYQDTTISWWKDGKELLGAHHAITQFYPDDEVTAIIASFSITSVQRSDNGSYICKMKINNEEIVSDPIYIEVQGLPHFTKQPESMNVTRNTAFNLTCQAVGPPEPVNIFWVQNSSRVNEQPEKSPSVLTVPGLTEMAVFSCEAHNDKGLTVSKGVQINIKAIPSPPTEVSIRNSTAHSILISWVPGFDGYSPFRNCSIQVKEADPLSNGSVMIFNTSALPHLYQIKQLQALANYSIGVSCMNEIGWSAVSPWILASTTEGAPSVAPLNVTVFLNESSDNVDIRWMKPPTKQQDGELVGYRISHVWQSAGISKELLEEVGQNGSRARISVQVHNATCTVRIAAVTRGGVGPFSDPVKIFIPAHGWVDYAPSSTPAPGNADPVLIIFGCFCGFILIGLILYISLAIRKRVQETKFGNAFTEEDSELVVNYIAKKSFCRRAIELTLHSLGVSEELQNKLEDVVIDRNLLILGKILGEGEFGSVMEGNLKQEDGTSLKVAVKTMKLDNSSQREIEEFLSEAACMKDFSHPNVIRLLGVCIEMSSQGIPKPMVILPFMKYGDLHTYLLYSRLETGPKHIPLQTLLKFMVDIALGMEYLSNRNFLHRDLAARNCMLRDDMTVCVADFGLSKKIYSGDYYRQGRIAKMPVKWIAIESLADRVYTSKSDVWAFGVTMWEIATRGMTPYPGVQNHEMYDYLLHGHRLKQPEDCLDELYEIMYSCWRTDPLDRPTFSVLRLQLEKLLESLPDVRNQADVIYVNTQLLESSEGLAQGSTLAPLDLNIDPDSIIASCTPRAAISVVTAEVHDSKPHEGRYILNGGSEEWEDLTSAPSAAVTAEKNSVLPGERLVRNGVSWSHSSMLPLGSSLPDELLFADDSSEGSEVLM
Procedure, shortened: as §1

PrKX (h) = molecular target: T6, PrKX (h) (Homo sapiens, UniProt P51817)
T6 sequence (P51817 1-358): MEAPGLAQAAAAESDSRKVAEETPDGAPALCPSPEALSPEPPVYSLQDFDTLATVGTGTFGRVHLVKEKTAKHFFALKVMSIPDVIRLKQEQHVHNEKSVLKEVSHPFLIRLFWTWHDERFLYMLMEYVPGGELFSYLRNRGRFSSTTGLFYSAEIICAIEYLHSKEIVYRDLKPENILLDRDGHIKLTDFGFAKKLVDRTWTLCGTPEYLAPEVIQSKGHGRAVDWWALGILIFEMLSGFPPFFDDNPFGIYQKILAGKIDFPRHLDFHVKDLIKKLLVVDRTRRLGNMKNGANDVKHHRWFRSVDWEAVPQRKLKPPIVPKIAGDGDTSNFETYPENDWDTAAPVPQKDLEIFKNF
Procedure, shortened: as §1

Chain of LIMK1 (h) (P53667 whole entry): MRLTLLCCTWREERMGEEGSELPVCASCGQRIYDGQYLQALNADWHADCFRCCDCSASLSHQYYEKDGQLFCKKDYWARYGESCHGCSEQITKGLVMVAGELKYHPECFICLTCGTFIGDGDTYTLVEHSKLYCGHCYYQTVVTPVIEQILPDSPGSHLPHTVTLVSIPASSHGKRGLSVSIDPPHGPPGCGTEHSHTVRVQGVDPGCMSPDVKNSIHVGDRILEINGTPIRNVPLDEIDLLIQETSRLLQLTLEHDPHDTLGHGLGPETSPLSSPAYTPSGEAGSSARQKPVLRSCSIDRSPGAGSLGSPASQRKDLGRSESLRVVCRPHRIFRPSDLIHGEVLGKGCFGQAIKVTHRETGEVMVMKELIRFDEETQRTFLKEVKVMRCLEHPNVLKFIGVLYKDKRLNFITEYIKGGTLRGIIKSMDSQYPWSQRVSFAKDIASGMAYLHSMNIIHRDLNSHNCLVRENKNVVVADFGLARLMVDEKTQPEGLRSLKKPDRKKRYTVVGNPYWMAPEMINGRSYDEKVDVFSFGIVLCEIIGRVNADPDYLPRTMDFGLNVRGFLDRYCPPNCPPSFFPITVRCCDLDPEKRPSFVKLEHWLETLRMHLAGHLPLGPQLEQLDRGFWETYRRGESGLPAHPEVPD

Question: What does the source list for FAKLAARLYRKALARQLGVAA [MMI-0300]?
Answer: % activity (LIMK1 (h)): 88%; % activity (CDK1/cyclinB (h)): 73%; % activity (ErbB4 (h)): 40%; % activity (Src(1-530) (h)): 23%; % activity (Ret (V804L) (h)): 79%; % activity (MAPKAP-K2 (h)): 5%; % activity (CSK (h)): 49%; % activity (MuSK (h)): 93%; % activity (Aurora-B (h)): 128%; % activity (Mer (h)): 52%; % activity (PrKX (h)): 61%

Question: How did the “% activity” value (LIMK1 (h)) turn out when “HRRIKAWLKKIKALARQLGVAA (Mammalian) [MMI-0500]” was run?
Answer: 87%

Question: And the “% activity” value (CDK1/cyclinB (h))?
Answer: 57%

Question: And the “% activity” value (ErbB4 (h))?
Answer: 2%

Question: And the “% activity” value (Src(1-530) (h))?
Answer: 21%

Question: And the “% activity” value (Ret (V804L) (h))?
Answer: 20%

Question: What about the “% activity” value (MAPKAP-K2 (h)) of the same sequence?
Answer: 9%

Question: And the “% activity” value (CSK (h))?
Answer: 2%

Question: And the “% activity” value (MuSK (h))?
Answer: 27%

Question: What about the “% activity” value (Aurora-B (h)) of the same sequence?
Answer: 5%

Question: And the “% activity” value (Mer (h))?
Answer: 17%

Question: And the “% activity” value (PrKX (h))?
Answer: 57%

Question: Which “% activity” value (LIMK1 (h)) does the source give for KAFAKLAARLYRKALARQLGVAA [MMI-0400] here?
Answer: 92%

Question: And the “% activity” value (CDK1/cyclinB (h))?
Answer: 74%

Question: And the “% activity” value (ErbB4 (h))?
Answer: 0%

Question: And the “% activity” value (Src(1-530) (h))?
Answer: 19%

Question: And the “% activity” value (Ret (V804L) (h))?
Answer: 73%

Question: What about the “% activity” value (MAPKAP-K2 (h)) of the same sequence?
Answer: 5%

Question: What about the “% activity” value (CSK (h)) of the same sequence?
Answer: 16%

Question: What about the “% activity” value (MuSK (h)) of the same sequence?
Answer: 93%

Question: And the “% activity” value (Aurora-B (h))?
Answer: 150%

Question: And the “% activity” value (Mer (h))?
Answer: 50%

Question: What about the “% activity” value (PrKX (h)) of the same sequence?
Answer: 76%

Question: “YARAAARQARAKALNRQLGVA (Mammalian) [MMI-0200]” was tested. Which “% activity” value (ErbB4 (h)) did it give?
Answer: 82%

Question: And the “% activity” value (Src(1-530) (h))?
Answer: 75%

Question: And the “% activity” value (Ret (V804L) (h))?
Answer: 100%

Question: What about the “% activity” value (MAPKAP-K2 (h)) of the same sequence?
Answer: 35%

Question: And the “% activity” value (CSK (h))?
Answer: 33%

Question: And the “% activity” value (Aurora-B (h))?
Answer: 166%

Question: And the “% activity” value (Mer (h))?
Answer: 90%
